Experimental data: US20150218281A1 (Ablynx, published 2015)
Substitutions are numbered along the chain they refer to.

B1: OX40L01E10 (VHH)
VHH: EVQLVESGGGLVQAGDSLRLSCAASGLTFSSFAMGWFRQAPGKEREFVAAISRSGYGTSEADSVRDRFIISRDNAKNTVTLHLSRLKPEDTAVYYCAAEHTLGRPSRSQINYLYWGQGTQVTVSS
notes: monovalent Nanobody from E. coli; not shown: C-terminal c-myc and His6 tag
B2: OX40L18E09 (VHH)
VHH: EVQLVESGGGLVQAGGSLRLSCAASRNILSLNTMGWYRHAPGKPRELVARISSNSKTDYADSVKGRFTISRDNAKNTVLLQMNSLKPEDTGVYYCNLNVWRTSSDYWGQGTQVTVSS
notes: as for B1

What was measured:
[1] = target: T1, full length human OX40L expressed on CHO cells (human, UniProt P23510 1-183); assay: cell-based or functional assay
T1 sequence: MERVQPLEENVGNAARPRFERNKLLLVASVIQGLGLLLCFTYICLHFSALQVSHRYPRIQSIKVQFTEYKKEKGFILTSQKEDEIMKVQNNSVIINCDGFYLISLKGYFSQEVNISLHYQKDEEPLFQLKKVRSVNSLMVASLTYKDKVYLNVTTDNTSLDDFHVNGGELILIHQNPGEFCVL

[2] = target: T1, full length human OX40L expressed on …; assay: competition FACS with hOX40/Fc on CHO-hOX40L
Experimental: The competition FACS assay was performed as described in example 2.

[3] = target: T2, recombinant human OX40L (extracellular domain, R&D Systems) (human, UniProt P23510 51-183); assay: SPR, after second injection of buffer HBS-EP+
T2 construct: also called hOX40L; rec. hOX40L
T2 sequence: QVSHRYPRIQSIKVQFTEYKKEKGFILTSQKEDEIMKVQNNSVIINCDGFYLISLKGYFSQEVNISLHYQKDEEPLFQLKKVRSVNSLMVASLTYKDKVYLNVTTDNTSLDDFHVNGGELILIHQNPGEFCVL
Experimental: (§1) In addition, it was investigated to what extend the 7 anti-OX40L Nanobodies have a different or identical or overlapping epitope. Standard conditions were as described above. […] 1300 RU. A dual injection was performed at 10 μl/min for 2 min, starting with 500 nM of the first Nanobody, followed by 500 nM of the second Nanobody. After 10 min dissociation, regeneration of the surface was performed by injection of 50 mM NaOH for 5-20 sec at 100 μl/min.

[4] = target: T1, full length human OX40L expressed on …; assay: FACS binding to CHO cells, anti-c-myc detection
Experimental: (§2) Transfection of CHO K1 with the respective expression plasmid DNA and selection of clones with high expression levels was performed as described in Example 1. Binding of the Nanobodies to the cell surface expressed OX40L was assessed by FACS analysis of cells as described below.
(§3) After washing bound Nanobodies were detected in FACSArray™ using mouse anti-c-myc and PE conjugated goat anti-mouse IgG.

[5] = target: T3, cynomolgus OX40L expressed on CHO cells (cynomolgus monkey, UniProt P23510 1-183 (human entry)); assay: FACS binding to CHO cells, anti-c-myc detection
T3 construct: also called cynoOX40L; CHO-cynoOX40L
T3 chain: T1 sequence with R55Q, K73E
Experimental: as §2, §3

[6] = target: T2, recombinant human OX40L (extracellular …); assay: SPR, second injection after competitor OX40L01B11
Experimental: as §1

[7] = target: T2, recombinant human OX40L (extracellular …); assay: SPR, second injection after competitor OX40L01E07
Experimental: as §1

[8] = target: T2, recombinant human OX40L (extracellular …); assay: SPR, second injection after competitor OX40L01E10
Experimental: as §1

[9] = target: T2, recombinant human OX40L (extracellular …); assay: SPR, second injection after competitor OX40L15B07
Experimental: as §1

[10] = target: T2, recombinant human OX40L (extracellular …); assay: SPR, second injection after competitor OX40L18E09
Experimental: as §1

[11] = target: T2, recombinant human OX40L (extracellular …); assay: SPR, second injection after competitor OX40L19A07
Experimental: as §1

[12] = target: T2, recombinant human OX40L (extracellular …); assay: SPR, second injection after competitor OX40L19D08
Experimental: as §1

[13] = target: T4, biotinylated hOX40L (R&D Systems, biotinylated in house) (human, UniProt P23510 51-183, biotinylated with Sulfo-NHS-LC-Biotin, sites not stated); assay: AlphaScreen, 31 pM biotinylated hOX40L + 80 pM OX40/Fc
T4 construct: same bought protein as m10, biotinylated; also called biotinylated OX40L
T4 sequence: T2 sequence
Experimental: (§4) Next, streptavidin donor beads were added and incubated for an additional 1 hour. Fluorescence was measured by reading plates on the EnVision Multilabel Plate Reader using an excitation wavelength of 680 nm and an emission wavelength of 520 nm.

hTNF-alpha = hTNF-alpha (human, UniProt P01375 77-233); assay: competition ELISA on neutravidin captured biotinylated hOX40L
Chain of hTNF-alpha (P01375 77-233 limits assumed): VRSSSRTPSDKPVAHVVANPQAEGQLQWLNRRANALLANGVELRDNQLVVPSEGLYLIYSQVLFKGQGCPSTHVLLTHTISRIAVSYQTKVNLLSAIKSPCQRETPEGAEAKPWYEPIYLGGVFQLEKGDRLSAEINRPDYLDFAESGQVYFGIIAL
Experimental: (§5) The binding of OX40L blocking Nanobodies to other TNF family members was tested in a competition ELISA.
(§6) Detection was done using sTMB (SDT Reagents, Baesweiler, Germany), the reaction was stopped with 1M HCl and absorbance was determined at 450 nm.

hCD40L = target: T5, hCD40L (human, UniProt P29965 113-261); assay: as above
T5 sequence (looked up): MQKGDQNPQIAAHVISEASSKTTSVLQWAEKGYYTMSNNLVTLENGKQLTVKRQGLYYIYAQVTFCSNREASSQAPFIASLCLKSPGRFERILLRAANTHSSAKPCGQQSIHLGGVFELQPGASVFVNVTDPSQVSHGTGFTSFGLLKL
Experimental: as §5, §6

hCD30L = target: T6, hCD30L (human, UniProt P32971 63-234); assay: as above
T6 sequence (looked up): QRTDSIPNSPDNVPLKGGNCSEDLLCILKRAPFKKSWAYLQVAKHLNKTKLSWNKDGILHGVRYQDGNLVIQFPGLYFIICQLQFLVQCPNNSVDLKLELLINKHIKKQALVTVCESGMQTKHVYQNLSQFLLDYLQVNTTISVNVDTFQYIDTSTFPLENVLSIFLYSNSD
Experimental: as §5, §6

[14] = target: T7, human Receptor Activator for Nuclear Factor kappa B Ligand (human, UniProt O14788 143-317, limits assumed); assay: as above
T7 construct: also called hRANKL; RANKL
T7 sequence (looked up): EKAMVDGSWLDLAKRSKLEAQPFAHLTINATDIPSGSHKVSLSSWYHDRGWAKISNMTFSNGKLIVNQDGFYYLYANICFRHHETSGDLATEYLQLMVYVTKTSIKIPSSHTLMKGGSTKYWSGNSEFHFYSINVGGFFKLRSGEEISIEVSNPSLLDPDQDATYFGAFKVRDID
Experimental: as §5, §6

[15] = target: T8, human tumor necrosis factor-related apoptosis inducing ligand (human, UniProt P50591 114-281); assay: as above
T8 construct: also called hTRAIL; TRAIL
T8 sequence (P50591 114-281 limits assumed): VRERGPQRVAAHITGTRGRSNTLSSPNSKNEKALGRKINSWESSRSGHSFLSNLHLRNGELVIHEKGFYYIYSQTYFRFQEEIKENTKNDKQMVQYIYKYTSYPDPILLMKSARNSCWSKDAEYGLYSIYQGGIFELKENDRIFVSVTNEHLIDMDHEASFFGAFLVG
Experimental: as §5, §6

[16] = target: T4, biotinylated hOX40L (R&D Systems, …); assay: AlphaScreen, 120 pM biotinylated hOX40L + 0.2 nM hOX40/Fc
Experimental: as §4

[17] = target: T1, full length human OX40L expressed on …; assay: competition FACS, 3.1 nM hOX40/Fc on hOX40L expressing cells

| Binder | IC50, IL4 production, T-cell activation assay, donor 1 [1] | IC50, IL4 production, T-cell activation assay, donor 2 [1] | IC50, IL4 production, T-cell activation assay, donor 3 [1] | IC50, IL4 production, T-cell activation assay, donor 4 [1] | IC50 [2] | Binding Level sample 2 (RU) [3] | Binding Level sample 2 - sample 1 (RU) [3] | EC50 [4] | EC50 [5] | Binding Level sample 2 (RU) [6] | Binding Level sample 2 - sample 1 (RU) [6] | Binding Level sample 2 (RU) [7] | Binding Level sample 2 - sample 1 (RU) [7] | Binding Level sample 2 (RU) [8] | Binding Level sample 2 - sample 1 (RU) [8] | Binding Level sample 2 (RU) [9] | Binding Level sample 2 - sample 1 (RU) [9] | Binding Level sample 2 (RU) [10] | Binding Level sample 2 - sample 1 (RU) [10] | Binding Level sample 2 (RU) [11] | also measured |
| --- | --- | --- | --- | --- | --- | --- | --- | --- | --- | --- | --- | --- | --- | --- | --- | --- | --- | --- | --- | --- | --- |
| B1 | 110 nM | 159 nM | 27 nM | 12 nM | 12 nM | 185 RU | -26 RU | 3.77 nM | 5.54 nM | 342 RU | -7 RU | 193 RU | 5 RU | 215 RU | 8 RU | 190 RU | 5 RU | 176 RU | -2 RU | 183 RU | Binding Level sample 2 - sample 1 (RU) [11]: 17 RU; Binding Level sample 2 (RU) [12]: 202 RU; Binding Level sample 2 - sample 1 (RU) [12]: -13 RU; IC50 [13]: 0.264 nM; binding result (hTNF-alpha): no binding (tested: starting from 100 fold molar excess); binding result (hCD40L): no binding (tested: starting from 100 fold molar excess); binding result (hCD30L): no binding (tested: starting from 100 fold molar excess); binding result [14]: no binding (tested: starting from 100 fold molar excess); binding result [15]: no binding (tested: starting from 100 fold molar excess); IC50 [16]: 0.49 nM; IC50 [17]: 9.11 nM |
| B2 | 36 nM | 45 nM | 36 nM | 49 nM | 2 nM | 168 RU | -16 RU | 2.26 nM | 3.8 nM | 312 RU | -7 RU | 200 RU | 15 RU | 245 RU | 21 RU | 207 RU | 11 RU | 195 RU | 5 RU | 206 RU | Binding Level sample 2 - sample 1 (RU) [11]: 30 RU; Binding Level sample 2 (RU) [12]: 225 RU; Binding Level sample 2 - sample 1 (RU) [12]: -3 RU; IC50 [13]: 0.041 nM; binding result (hTNF-alpha): no binding (tested: starting from 100 fold molar excess); binding result (hCD40L): no binding (tested: starting from 100 fold molar excess); binding result (hCD30L): no binding (tested: starting from 100 fold molar excess); binding result [14]: no binding (tested: starting from 100 fold molar excess); binding result [15]: no binding (tested: starting from 100 fold molar excess); IC50 [16]: 0.112 nM; IC50 [17]: 1.73 nM |
